This is an account of results in patent publication US8158376B2, “Bisubstrate fluorescent probe binding to protein kinases” (University of Tartu, priority 2006, dated 2012).

Holding throughout (experiment): Kinase selectivity panel
Holding throughout (type): biochemical

One data set has as its target Aurora B (Homo sapiens, UniProt Q96GD4). The conditions noted are these: read-out: residual activity (%) Aurora B. The procedure:
(§1) The panel of kinases included all 52 kinases available for testing.
(§2) The assay of protein kinases was performed at 30° C. as described previously [Davies et al., Biochem. J. 351 (2000) 95; Murray et al., Biochem. J. 384 (2004) 477].

The target in another data set is JNK3 (Homo sapiens, UniProt P53779). As to conditions: read-out: residual activity (%) JNK3. The protocol:
as §1, §2

The next data set addresses MAPKAP-K1a/rsk-1 (Homo sapiens, UniProt Q15418). As to conditions: inhibitor 1 μM, ATP 50 μM. The procedure: as §1, §2
For a further data set, the target named is MAPKAP-K1b/rsk-2 (Homo sapiens, UniProt P51812). As to conditions: ATP 50 μM. The procedure:
as §1, §2

For the next data set, the target named is MAPKAP-K3 (Homo sapiens, UniProt Q16644). As to conditions: read-out: residual activity (%) MAPKAP-K3. The procedure:
as §1, §2

The target in another data set is NEK6 (Homo sapiens, UniProt Q9HC98). The conditions noted are these: read-out: residual activity (%) NEK6. The protocol: as §1, §2
Another data set addresses NEK7 (Homo sapiens, UniProt Q8TDX7). The conditions noted are these: read-out: residual activity (%) NEK7. The procedure:
as §1, §2

A further data set has as its target T1, PDK1 (Homo sapiens, UniProt O15530).
T1 sequence (O15530 1-556): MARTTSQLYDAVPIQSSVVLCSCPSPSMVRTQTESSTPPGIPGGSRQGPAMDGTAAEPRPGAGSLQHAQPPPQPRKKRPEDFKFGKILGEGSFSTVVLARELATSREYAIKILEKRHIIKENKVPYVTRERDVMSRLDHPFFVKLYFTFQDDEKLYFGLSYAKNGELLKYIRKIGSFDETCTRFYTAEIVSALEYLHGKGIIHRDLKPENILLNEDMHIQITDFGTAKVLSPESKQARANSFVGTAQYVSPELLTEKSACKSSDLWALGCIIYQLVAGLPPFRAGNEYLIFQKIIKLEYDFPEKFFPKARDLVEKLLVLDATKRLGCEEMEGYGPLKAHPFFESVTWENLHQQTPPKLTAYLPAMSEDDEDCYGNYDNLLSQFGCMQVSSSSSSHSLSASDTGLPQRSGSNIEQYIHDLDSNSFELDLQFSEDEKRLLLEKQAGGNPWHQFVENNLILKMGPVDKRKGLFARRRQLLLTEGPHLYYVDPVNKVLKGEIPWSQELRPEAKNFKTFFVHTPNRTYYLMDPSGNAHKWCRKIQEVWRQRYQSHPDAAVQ
The conditions noted are these: read-out: residual activity (%) PDK1. The procedure:
as §1, §2

The target of another data set is PIM2 (Homo sapiens, UniProt Q9P1W9). As to conditions: read-out: residual activity (%) PIM2. The protocol:
as §1, §2

The target of a further data set is PKBb (Homo sapiens, UniProt P31751). The conditions noted are these: read-out: residual activity (%) PKBb. The protocol: as §1, §2
For another data set, the target named is PKCa (Homo sapiens, UniProt P17252). The conditions noted are these: read-out: residual activity (%) PKCa. The protocol: as §1, §2
The target of the next data set is PLK1 (Homo sapiens, UniProt P53350). The conditions noted are these: read-out: residual activity (%) PLK1. The protocol: as §1, §2
Another data set addresses T2, PRAK (Homo sapiens, UniProt Q8IW41).
T2 sequence (Q8IW41 1-473): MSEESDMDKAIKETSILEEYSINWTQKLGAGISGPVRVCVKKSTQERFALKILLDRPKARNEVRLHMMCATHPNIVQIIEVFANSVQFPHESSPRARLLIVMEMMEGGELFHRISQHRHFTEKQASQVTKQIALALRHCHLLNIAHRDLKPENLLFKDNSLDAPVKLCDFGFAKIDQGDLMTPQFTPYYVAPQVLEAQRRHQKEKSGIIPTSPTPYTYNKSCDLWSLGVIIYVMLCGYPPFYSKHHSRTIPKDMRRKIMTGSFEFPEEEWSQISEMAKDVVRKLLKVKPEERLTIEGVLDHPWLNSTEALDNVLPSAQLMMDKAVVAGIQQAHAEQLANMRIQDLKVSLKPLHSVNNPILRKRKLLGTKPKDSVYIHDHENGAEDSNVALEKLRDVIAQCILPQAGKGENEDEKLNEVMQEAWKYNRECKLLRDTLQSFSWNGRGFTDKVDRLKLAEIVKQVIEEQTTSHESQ
As to conditions: read-out: residual activity (%) PRAK. The procedure: as §1, §2

For another data set, the target named is PRK2 (Homo sapiens, UniProt Q16513). The conditions noted are these: read-out: residual activity (%) PRK2. The procedure: as §1, §2
A further data set has as its target SRPK1 (Homo sapiens, UniProt Q96SB4). The conditions noted are these: read-out: residual activity (%) SRPK1. The procedure: as §1, §2
A further data set concerns the target Src (Homo sapiens, UniProt P12931). As to conditions: read-out: residual activity (%) Src. The procedure: as §1, §2
The next data set deals with smMLCK (Homo sapiens, UniProt Q15746). The conditions noted are these: read-out: residual activity (%) smMLCK. The protocol:
as §1, §2

Like-named read-outs stand apart in the source and are kept apart here.

MAPKAP-K1b/rsk-2, sequence (P51812 whole entry): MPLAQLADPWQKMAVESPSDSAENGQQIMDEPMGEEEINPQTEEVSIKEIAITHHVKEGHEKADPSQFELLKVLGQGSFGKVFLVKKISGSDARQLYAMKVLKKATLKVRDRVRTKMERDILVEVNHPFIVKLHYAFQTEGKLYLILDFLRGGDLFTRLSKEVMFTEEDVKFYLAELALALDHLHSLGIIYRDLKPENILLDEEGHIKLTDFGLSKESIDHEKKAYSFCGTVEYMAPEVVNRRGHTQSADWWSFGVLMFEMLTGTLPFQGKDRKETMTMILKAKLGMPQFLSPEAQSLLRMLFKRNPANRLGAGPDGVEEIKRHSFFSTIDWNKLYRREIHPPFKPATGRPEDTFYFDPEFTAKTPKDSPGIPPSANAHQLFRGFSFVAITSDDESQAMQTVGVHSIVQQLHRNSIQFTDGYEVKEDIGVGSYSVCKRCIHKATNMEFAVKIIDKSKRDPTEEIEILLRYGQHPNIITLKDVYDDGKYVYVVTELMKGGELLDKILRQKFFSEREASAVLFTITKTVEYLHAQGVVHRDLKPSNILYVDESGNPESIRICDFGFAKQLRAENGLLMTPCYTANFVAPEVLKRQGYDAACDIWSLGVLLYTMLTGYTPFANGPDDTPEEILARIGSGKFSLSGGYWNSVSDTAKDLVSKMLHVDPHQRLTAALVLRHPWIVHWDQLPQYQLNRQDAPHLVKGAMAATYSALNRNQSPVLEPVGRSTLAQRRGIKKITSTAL
Aurora B, sequence (Q96GD4 whole entry): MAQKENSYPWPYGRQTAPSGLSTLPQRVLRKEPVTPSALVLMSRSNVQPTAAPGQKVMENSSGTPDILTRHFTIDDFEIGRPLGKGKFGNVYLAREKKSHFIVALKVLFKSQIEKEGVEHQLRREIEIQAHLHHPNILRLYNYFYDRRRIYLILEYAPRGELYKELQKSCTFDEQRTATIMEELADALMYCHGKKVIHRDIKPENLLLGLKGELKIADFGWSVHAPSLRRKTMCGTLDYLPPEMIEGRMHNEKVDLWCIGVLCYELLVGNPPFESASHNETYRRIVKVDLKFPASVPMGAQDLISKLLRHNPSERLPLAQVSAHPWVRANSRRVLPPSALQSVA
PLK1, sequence (P53350 whole entry, species assumed): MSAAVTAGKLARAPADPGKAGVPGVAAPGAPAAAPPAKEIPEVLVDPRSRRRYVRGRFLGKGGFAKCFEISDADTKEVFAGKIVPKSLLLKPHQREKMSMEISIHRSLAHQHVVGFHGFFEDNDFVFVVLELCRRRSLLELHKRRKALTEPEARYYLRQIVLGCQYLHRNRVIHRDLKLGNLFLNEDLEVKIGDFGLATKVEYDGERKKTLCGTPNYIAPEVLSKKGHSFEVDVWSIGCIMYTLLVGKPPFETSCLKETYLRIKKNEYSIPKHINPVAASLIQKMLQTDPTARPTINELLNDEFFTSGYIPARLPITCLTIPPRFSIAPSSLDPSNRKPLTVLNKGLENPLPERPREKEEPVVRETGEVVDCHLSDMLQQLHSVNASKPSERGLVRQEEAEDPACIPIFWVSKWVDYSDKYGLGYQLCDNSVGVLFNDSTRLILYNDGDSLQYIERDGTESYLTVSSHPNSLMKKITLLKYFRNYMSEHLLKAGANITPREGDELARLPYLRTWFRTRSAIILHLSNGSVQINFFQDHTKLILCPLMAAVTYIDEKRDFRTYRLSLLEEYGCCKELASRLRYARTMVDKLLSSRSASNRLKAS
PRK2, sequence (Q16513 whole entry, species assumed): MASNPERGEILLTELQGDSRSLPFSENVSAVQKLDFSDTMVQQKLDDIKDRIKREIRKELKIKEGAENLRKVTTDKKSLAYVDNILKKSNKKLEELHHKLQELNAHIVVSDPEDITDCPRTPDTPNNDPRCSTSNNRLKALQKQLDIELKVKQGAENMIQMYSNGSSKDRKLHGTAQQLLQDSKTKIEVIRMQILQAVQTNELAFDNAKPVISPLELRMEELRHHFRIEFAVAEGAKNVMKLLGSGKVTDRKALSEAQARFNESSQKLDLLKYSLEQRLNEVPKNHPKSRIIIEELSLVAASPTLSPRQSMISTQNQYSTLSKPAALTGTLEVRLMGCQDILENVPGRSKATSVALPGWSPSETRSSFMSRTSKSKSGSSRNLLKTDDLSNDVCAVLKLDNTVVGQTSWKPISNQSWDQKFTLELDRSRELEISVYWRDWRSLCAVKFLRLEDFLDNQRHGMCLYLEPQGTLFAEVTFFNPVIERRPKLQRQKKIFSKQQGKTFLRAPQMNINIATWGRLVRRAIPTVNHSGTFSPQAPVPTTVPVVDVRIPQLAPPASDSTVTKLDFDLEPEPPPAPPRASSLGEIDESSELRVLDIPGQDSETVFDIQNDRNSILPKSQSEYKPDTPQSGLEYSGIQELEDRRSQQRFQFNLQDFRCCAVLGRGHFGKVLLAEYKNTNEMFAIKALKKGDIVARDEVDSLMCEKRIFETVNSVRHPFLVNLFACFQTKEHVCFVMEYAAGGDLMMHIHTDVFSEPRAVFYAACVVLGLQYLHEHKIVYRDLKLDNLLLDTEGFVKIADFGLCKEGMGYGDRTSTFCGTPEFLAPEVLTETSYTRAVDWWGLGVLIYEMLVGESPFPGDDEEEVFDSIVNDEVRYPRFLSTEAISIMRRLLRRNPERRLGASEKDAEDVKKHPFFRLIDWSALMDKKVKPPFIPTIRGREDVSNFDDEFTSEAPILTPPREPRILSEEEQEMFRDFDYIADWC
NEK6, sequence (Q9HC98 whole entry, species assumed): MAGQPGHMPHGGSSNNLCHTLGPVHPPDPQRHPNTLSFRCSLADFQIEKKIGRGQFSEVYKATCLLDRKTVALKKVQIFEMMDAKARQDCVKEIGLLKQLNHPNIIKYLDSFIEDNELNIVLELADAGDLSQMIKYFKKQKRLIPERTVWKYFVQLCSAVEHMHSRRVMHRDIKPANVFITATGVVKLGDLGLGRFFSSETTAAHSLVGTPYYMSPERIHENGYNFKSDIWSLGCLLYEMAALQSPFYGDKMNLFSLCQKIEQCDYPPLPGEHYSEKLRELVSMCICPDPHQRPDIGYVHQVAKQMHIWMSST
JNK3, sequence (P53779 whole entry, species assumed): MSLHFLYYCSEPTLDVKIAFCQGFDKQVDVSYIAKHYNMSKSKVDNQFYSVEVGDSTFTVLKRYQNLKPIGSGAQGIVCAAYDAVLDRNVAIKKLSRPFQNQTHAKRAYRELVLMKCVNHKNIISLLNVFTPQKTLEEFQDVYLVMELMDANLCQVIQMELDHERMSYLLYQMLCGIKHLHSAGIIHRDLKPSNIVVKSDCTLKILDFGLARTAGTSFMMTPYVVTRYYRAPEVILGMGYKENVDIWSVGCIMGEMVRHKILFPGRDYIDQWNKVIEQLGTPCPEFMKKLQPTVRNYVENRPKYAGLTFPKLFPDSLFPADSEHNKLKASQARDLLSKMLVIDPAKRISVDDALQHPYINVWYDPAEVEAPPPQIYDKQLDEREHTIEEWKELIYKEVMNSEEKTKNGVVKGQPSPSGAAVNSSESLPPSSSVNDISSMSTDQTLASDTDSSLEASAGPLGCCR
PIM2, sequence (Q9P1W9 whole entry, species assumed): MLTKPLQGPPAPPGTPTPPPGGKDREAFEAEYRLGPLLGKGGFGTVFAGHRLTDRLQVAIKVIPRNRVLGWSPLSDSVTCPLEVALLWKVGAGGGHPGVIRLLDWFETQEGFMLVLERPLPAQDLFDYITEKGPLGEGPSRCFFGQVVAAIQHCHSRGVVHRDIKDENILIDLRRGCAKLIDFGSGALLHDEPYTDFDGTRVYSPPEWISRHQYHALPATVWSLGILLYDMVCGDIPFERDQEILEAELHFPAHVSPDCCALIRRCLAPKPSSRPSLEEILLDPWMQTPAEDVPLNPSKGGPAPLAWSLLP
PKBb, sequence (P31751 whole entry): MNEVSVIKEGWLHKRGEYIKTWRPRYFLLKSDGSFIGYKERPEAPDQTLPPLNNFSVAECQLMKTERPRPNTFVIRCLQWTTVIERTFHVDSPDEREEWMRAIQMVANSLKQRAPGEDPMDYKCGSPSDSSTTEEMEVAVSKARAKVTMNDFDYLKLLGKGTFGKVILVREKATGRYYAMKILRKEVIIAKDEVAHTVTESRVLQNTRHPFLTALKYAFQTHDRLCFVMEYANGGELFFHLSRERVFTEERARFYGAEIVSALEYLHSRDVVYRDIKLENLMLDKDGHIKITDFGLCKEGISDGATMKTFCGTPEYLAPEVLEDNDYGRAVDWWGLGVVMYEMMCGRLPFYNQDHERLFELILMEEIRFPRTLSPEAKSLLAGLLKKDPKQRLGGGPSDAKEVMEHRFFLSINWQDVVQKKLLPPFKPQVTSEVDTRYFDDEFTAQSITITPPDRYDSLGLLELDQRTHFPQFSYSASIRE
Src, sequence (P12931 whole entry, species assumed): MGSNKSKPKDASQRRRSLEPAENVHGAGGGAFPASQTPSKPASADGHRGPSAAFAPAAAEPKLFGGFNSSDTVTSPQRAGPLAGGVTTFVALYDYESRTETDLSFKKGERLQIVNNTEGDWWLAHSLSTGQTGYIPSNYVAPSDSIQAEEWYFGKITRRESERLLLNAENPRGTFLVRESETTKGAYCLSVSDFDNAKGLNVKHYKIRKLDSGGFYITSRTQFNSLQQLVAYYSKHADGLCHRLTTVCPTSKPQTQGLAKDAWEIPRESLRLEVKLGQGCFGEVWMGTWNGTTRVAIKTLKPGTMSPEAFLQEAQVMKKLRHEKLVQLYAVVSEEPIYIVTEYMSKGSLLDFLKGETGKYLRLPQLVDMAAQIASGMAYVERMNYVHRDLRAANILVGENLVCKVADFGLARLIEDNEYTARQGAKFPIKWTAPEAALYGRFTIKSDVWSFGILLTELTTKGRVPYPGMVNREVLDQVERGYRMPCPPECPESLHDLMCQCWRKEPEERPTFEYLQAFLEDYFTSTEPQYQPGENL

As to `N=C(N)NCCC[C@@H](NC(=O)[C@@H](CCCNC(=N)N)NC(=O)[C@@H](CCCNC(=N)N)NC(=O)[C@@H](CCCNC(=N)N)NC(=O)[C@@H](CCCNC(=N)N)NC(=O)[C@@H](CCCNC(=N)N)NC(=O)CCCCCNC(=O)[C@H]1O[C@@H](n2cnc3c(N)ncnc32)[C@H](O)[C@@H]1O)C(N)=O` [Compound 5, AdcAhx(D-Arg)6-NH2], the remaining activity at 1 µM with Aurora B was 103%; with JNK3 it was 91%; in the data set with MAPKAP-K1b/rsk-2 (read-out: residual activity (%) MAPKAP-K1b/rsk-2, inhibitor 1 μM), 7 to 28%; in the data set with MAPKAP-K3 it was 67%; with NEK6 it was 94%; with NEK7, 58%. Further, the remaining activity at 1 µM was found to be 62% in the data set with PDK1; 38% in the data set with PIM2; 3% in the data set with PKBb; 31% with PKCa; 81% with PLK1; 89% in the data set with PRAK. The remaining activity at 1 µM with PRK2 is 2%; with SRPK1, 100%; with Src, 84%; in the data set with smMLCK, 72%. Besides, the “residual activity (%) MAPKAP-K1a/rsk-1” value with MAPKAP-K1a/rsk-1 is 28 (±7) %. Besides, the “residual activity (%) MAPKAP-K1b/rsk-2” value with MAPKAP-K1b/rsk-2 (inhibitor 1 μM) is on record as 12 (±0) %.

For the molecule `N=C(N)NCCC[C@@H](NC(=O)[C@@H](CCCNC(=N)N)NC(=O)[C@@H](CCCNC(=N)N)NC(=O)[C@@H](CCCNC(=N)N)NC(=O)[C@@H](CCCNC(=N)N)NC(=O)[C@@H](CCCNC(=N)N)NC(=O)CCCCCNCCNS(=O)(=O)c1cccc2cnccc12)C(N)=O` [Compound 26, H9-Hex(D-Arg)6-NH2], the remaining activity at 1 µM with Aurora B (inhibitor 1 μM, ATP 20 μM) was 53%; in the data set with JNK3 (inhibitor 1 μM, ATP 50 μM) it was 92%; with MAPKAP-K1a/rsk-1 (read-out: residual activity (%) MAPKAP-K1a/rsk-1) it was 0%; with MAPKAP-K1b/rsk-2 (inhibitor 1 μM, read-out: residual activity (%) MAPKAP-K1b/rsk-2), 2%; in the data set with MAPKAP-K3 (inhibitor 1 μM, ATP 20 μM), 69%; with NEK6 (inhibitor 1 μM, ATP 50 μM), 100%. Besides, the remaining activity at 1 µM with NEK7 (inhibitor 1 μM, ATP 20 μM) was 56%; with PDK1 (inhibitor 1 μM, ATP 20 μM), 56%; with PIM2 (inhibitor 1 μM, ATP 5 μM), less than 10%; with PKBb (inhibitor 1 μM, ATP 50 μM) it was 3%; with PKCa (inhibitor 1 μM, ATP 20 μM), 15%; in the data set with PLK1 (inhibitor 1 μM, ATP 5 μM), 76%. The remaining activity at 1 µM with PRAK (inhibitor 1 μM, ATP 20 μM) was 97%; with PRK2 (inhibitor 1 μM, ATP 5 μM), 2%; with SRPK1 (inhibitor 1 μM, ATP 50 μM) it was 99%; with Src (inhibitor 1 μM, ATP 50 μM), 88%; in the data set with smMLCK (inhibitor 1 μM, ATP 50 μM) it was 90%.
